Columns and labels:
[1] = target: WNV E ectodomain (residues 1-404) of the New York 1999 strain, expressed in E. coli and refolded (West Nile virus, New York 1999 strain) (UniProt Q9Q6P4); assay: SPR
[2] = target: WNV DIII fragment (residues 296-404) of the New York 1999 strain, expressed in E. coli and refolded (West Nile virus, New York 1999 strain) (UniProt Q9Q6P4); assay: SPR

Substance: mHu-E16 (mammalian CHO cell-produced humanized E16 monoclonal antibody)
- Kd [1]: 45 nM
- Kd [2]: 32 nM

Substance: pHu-E16 (plant-produced humanized E16 monoclonal antibody against West Nile virus)
- Kd [1]: 46 nM
- Kd [2]: 41 nM

Reference: patent US9499608
